Laboratory results taken from patent US20100261660A1.

Target: Soluble CD28-Ig (extracellular domain of human CD28 fused to the Fc portion of human IgG1) (human), P10747
Assay: competitive FACS on transfected cells, biotin-sCD28-Ig with FITC-sCTLA-4-Ig; grade 0-2 of CD28/CTLA-4 ratio vs WT hB7-1

| Binding Score | Binder |
| --- | --- |
| 1 | Round 2 CD28A4-9 (ligand, not fully specified; X: residue not identified in the source; ends and bridges not checked) ITPKSVTKRVKETVMLSCDYNTSTEKLTSLRIYWQKDSKMVLAILPGKVQVWPEYKNRTITDMNDNPRIVILALRLSDSGTYTCVIQKPVLKGAYKLEHLTSVRLMIRADFPVPTINDLGNPSPNIRRLICSTSGGFPRPHLYWLENGEELNATNTTVSQDPETKLYMISSELDFNVTNNHSIVCLIKYGELSVSQIFPWSKPKQEPPIDQLPFWVIIPVSGALVLTAVVLYCPACRHVARWKRTRRNEETVGTERLSPIYLGSAQSRAEVPSLSX |
| 1 | Round 2 CD28A12-5 (ligand, not fully specified; X: residue not identified in the source; ends and bridges not checked; also: glycosylated membrane protein, sites not given here) ITPKSVTKRVKETVMLSCDYNTSTEELTSLRIYWRKDSKMXLAILPGKVQVWPEYKNRTITDMNDNLRIVILALRLSDSGTYTCVIQKPDLKGAYKLEHLTSVRLMIRADFPVPTINDLGNPSPNIRRLICSTSGGFPRPHLYWLENGEELNATNTTVSQDPGTELYMISSELDFNVTNNHSIVCLIKYGELLVSQIFPWSKPKQEPPIDQLPFWVIIPVSGALVLTAVVLYCLACRHVARWKRTRRNEETVGTERLSPIYLGSAQSSG |
